± gives the uncertainty stated by the source.
Assay: self-splicing fitness, log relative to wild type (ln ratio); higher = more splicing; Tetrahymena group I intron in knt gene, E. coli kanamycin selection, DiMSum; sequences stand for … in CUCUCU…GGAGGGAAAAGUUAUCAGGCAUGCACCUGGUAGCUAGUCUUUAAACCAAUAGAUUGCAUCGGUUUAAAAGGCAAGACCGUCAAAUUGCGGGAAAGGGGUCAACAGCCGUUCAGUACCAAGUCUCAGGGGAAACUUUGAGAUGGCCUUGCAAAGGGUAUGGUAAUAAGCUGACGGACAUGGUCCUAACCACGCAGCCAAGUCCUAAGUCAACAGAUCUUCUGUUGAUAUGGAUGCAGUUCACAGACUAAAUGUCGGUCGGGGAAGAUGUAUUCUUCUCAUAAGAUAUAGUCGGACCUCUCCUUAAUGGGAGCUAGCGGAUGAAGUGAUGCAACACUGGAGCCGCUGGGAACUAAUUUGUAUGCGAAAGUAUAUUGAUUAGUUUUGGAGUACUCGUGGUCG
In short: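 Colonies from six replicate transformations of E. coli BL21(DE3) were pooled and amplicon-sequenced on an Illumina HiSeq 2500. The library placed an intron with all eight P1ex-region nucleotides randomised inside the knt kanamycin-resistance gene on pET-22b(+), and cells grew overnight at 37°C or 30°C on LB agar with or without 25 μg/mL kanamycin (plus 100 μg/mL carbenicillin, 50 μM IPTG, 0.2% rhamnose). Fitness is the DiMSum error-weighted combination of wild-type-normalised replicate fold changes, kanamycin versus none.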

Row | Sequence | self-splicing fitness (ln) (30 °C) | self-splicing fitness (ln) (37 °C)
1 | AUAAAGCAAUAUUACGGGUU | -2.17 ± 0.09 | -1.17 ± 0.098
2 | AUAAAGCAAUAUUACGUACA | -0.00533 ± 0.067 | 0.315 ± 0.098
3 | AUAAAGCAAUAUUACGUAGA | -2.36 ± 0.11 | -0.832 ± 0.12
4 | AUAAAGCAAUAUUACGUGUA | -1.55 ± 0.069 | -0.325 ± 0.089
5 | AUAAAGCAAUAUUACGUUAC | -2.55 ± 0.13 | -0.574 ± 0.12
6 | AUAAAGCAAUAUUACGUUUU | -2.37 ± 0.097 | -1.11 ± 0.12
7 | AUACAGCAAUAUUACGACCU | 0.331 ± 0.084 | 0.122 ± 0.094
8 | AUACAGCAAUAUUACGACUA | -0.177 ± 0.1 | -0.541 ± 0.089
9 | AUACAGCAAUAUUACGAGCG | -1.63 ± 0.096 | -0.55 ± 0.1
10 | AUACAGCAAUAUUACGAGGC | -2.99 ± 0.19 | -2.23 ± 0.2
11 | AUACAGCAAUAUUACGAUAA | -1.37 ± 0.099 | -0.374 ± 0.11
12 | AUACAGCAAUAUUACGAUCG | -0.733 ± 0.071 | -0.839 ± 0.097
13 | AUACAGCAAUAUUACGCCCG | -0.847 ± 0.17 | -0.634 ± 0.25
14 | AUACAGCAAUAUUACGCCUC | -2.79 ± 0.2 | -1.86 ± 0.17
15 | AUACAGCAAUAUUACGCGUA | -1.76 ± 0.11 | -0.809 ± 0.097
16 | AUACAGCAAUAUUACGCUAU | -3.03 ± 0.11 | -1.29 ± 0.087
17 | AUACAGCAAUAUUACGGCCG | -1.33 ± 0.16 | -1.14 ± 0.23
18 | AUACAGCAAUAUUACGGCUC | -0.178 ± 0.075 | 0.157 ± 0.1
19 | AUACAGCAAUAUUACGGGUA | -1.24 ± 0.078 | -0.645 ± 0.078
20 | AUACAGCAAUAUUACGGGUG | -1.63 ± 0.065 | -1 ± 0.073
21 | AUACAGCAAUAUUACGGGUU | -1.9 ± 0.071 | -1.05 ± 0.077
22 | AUACAGCAAUAUUACGUAUU | -3.18 ± 0.16 | -2.54 ± 0.2
23 | AUACAGCAAUAUUACGUCCU | -0.382 ± 0.073 | 1.06 ± 0.096
24 | AUAGAGCAAUAUUACGAUAC | -0.998 ± 0.12 | -0.0688 ± 0.19

Row | Sequence | self-splicing fitness (ln) (30 °C) | self-splicing fitness (ln) (37 °C)
25 | AUAGAGCAAUAUUACGAUCU | -0.131 ± 0.12 | -0.042 ± 0.17
26 | AUAGAGCAAUAUUACGAUGG | -2.76 ± 0.21 | -2.02 ± 0.31
27 | AUAGAGCAAUAUUACGAUUG | -3.46 ± 0.2 | -1.33 ± 0.15
28 | AUAGAGCAAUAUUACGCAAC | – | -1.78 ± 0.41
29 | AUAGAGCAAUAUUACGCAGU | -1.73 ± 0.16 | -0.369 ± 0.19
30 | AUAGAGCAAUAUUACGCAUU | -1.19 ± 0.096 | -0.296 ± 0.1
31 | AUAGAGCAAUAUUACGCCUA | -0.415 ± 0.11 | 0.144 ± 0.15
32 | AUAGAGCAAUAUUACGCCUC | -1.52 ± 0.24 | -0.831 ± 0.5
33 | AUAGAGCAAUAUUACGCGGC | -3.33 ± 0.35 | -1.78 ± 0.25
34 | AUAGAGCAAUAUUACGGACU | -1.15 ± 0.13 | -1.65 ± 0.23
35 | AUAGAGCAAUAUUACGGCCC | -1.68 ± 0.17 | -0.799 ± 0.3
36 | AUAGAGCAAUAUUACGGGGC | -3.43 ± 0.43 | -2.51 ± 0.41
37 | AUAGAGCAAUAUUACGGUAA | -1.76 ± 0.15 | -1.42 ± 0.17
38 | AUAGAGCAAUAUUACGGUCA | -1.48 ± 0.14 | -0.634 ± 0.21
39 | AUAGAGCAAUAUUACGUACC | -3.3 ± 0.16 | -1.3 ± 0.15
40 | AUAGAGCAAUAUUACGUCAG | -3.64 ± 0.28 | -2.66 ± 0.23
41 | AUAGAGCAAUAUUACGUCCA | -2.35 ± 0.21 | -0.672 ± 0.2
42 | AUAGAGCAAUAUUACGUCGG | -3.26 ± 0.14 | -2.27 ± 0.17
43 | AUAUAGCAAUAUUACGAAAU | -1.01 ± 0.21 | -1.72 ± 0.28
44 | AUAUAGCAAUAUUACGAACA | -0.789 ± 0.2 | -0.183 ± 0.21
45 | AUAUAGCAAUAUUACGAAUU | -2.52 ± 0.16 | -0.909 ± 0.14
46 | AUAUAGCAAUAUUACGACCC | -1.24 ± 0.28 | –
47 | AUAUAGCAAUAUUACGACUU | 0.217 ± 0.073 | -0.272 ± 0.075
48 | AUAUAGCAAUAUUACGAUAC | -1.66 ± 0.35 | -0.756 ± 0.26

Row | Sequence | self-splicing fitness (ln) (30 °C) | self-splicing fitness (ln) (37 °C)
49 | AUAUAGCAAUAUUACGAUGA | -0.834 ± 0.16 | -0.885 ± 0.17
50 | AUAUAGCAAUAUUACGCAUU | -3.04 ± 0.18 | -1.42 ± 0.15
51 | AUAUAGCAAUAUUACGCCAU | -1.32 ± 0.18 | -1.38 ± 0.21
52 | AUAUAGCAAUAUUACGCCGA | -2.85 ± 0.48 | -1.13 ± 0.35
53 | AUAUAGCAAUAUUACGGACC | -0.93 ± 0.22 | -0.283 ± 0.24
54 | AUAUAGCAAUAUUACGGCAC | -2 ± 0.24 | 0.951 ± 0.25
55 | AUAUAGCAAUAUUACGGCCA | -1.28 ± 0.22 | -0.185 ± 0.26
56 | AUAUAGCAAUAUUACGGCGG | -1.04 ± 0.17 | -0.534 ± 0.26
57 | AUAUAGCAAUAUUACGGUAG | -3.13 ± 0.18 | -1.74 ± 0.21
58 | AUAUAGCAAUAUUACGUAGC | -4.04 ± 0.39 | -2.54 ± 0.33
59 | AUAUAGCAAUAUUACGUCCA | -1.87 ± 0.34 | -0.0483 ± 0.29
60 | AUAUAGCAAUAUUACGUCGU | -1.12 ± 0.12 | -0.541 ± 0.18
61 | AUAUAGCAAUAUUACGUGAU | -1.4 ± 0.092 | -0.895 ± 0.14
62 | AUAUAGCAAUAUUACGUGCG | -0.942 ± 0.094 | -0.942 ± 0.13
63 | AUCAAGCAAUAUUACGAACC | -1.05 ± 0.18 | -0.734 ± 0.25
64 | AUCAAGCAAUAUUACGACGC | -0.837 ± 0.099 | -0.402 ± 0.12
65 | AUCAAGCAAUAUUACGACUA | -0.634 ± 0.076 | 0.132 ± 0.088
66 | AUCAAGCAAUAUUACGAGUG | -2.19 ± 0.1 | -1.28 ± 0.14
67 | AUCAAGCAAUAUUACGCAAG | -1.99 ± 0.15 | -0.935 ± 0.15
68 | AUCAAGCAAUAUUACGCCGA | -1.02 ± 0.14 | -0.375 ± 0.17
69 | AUCAAGCAAUAUUACGCGAG | -1.3 ± 0.081 | -0.224 ± 0.086
70 | AUCAAGCAAUAUUACGCUGG | -2.36 ± 0.096 | -0.84 ± 0.12
71 | AUCAAGCAAUAUUACGGGCA | -1.42 ± 0.098 | -0.95 ± 0.098
72 | AUCAAGCAAUAUUACGGUAC | -3.8 ± 0.23 | -0.246 ± 0.12

Row | Sequence | self-splicing fitness (ln) (30 °C) | self-splicing fitness (ln) (37 °C)
73 | AUCAAGCAAUAUUACGGUCC | -1.55 ± 0.13 | -1.75 ± 0.17
74 | AUCAAGCAAUAUUACGGUGU | -1.7 ± 0.076 | -1.11 ± 0.088
75 | AUCAAGCAAUAUUACGUAAA | -2.59 ± 0.13 | -1.11 ± 0.12
76 | AUCAAGCAAUAUUACGUCCA | -1.23 ± 0.09 | -0.319 ± 0.11
77 | AUCAAGCAAUAUUACGUCGG | -3.01 ± 0.13 | -1.29 ± 0.12
78 | AUCAAGCAAUAUUACGUGAU | -3.81 ± 0.2 | -2.23 ± 0.17
79 | AUCAAGCAAUAUUACGUGGG | -3.29 ± 0.14 | -2.04 ± 0.11
80 | AUCAAGCAAUAUUACGUGUG | -1.57 ± 0.069 | -1.32 ± 0.071
81 | AUCAAGCAAUAUUACGUUAA | -3.14 ± 0.11 | -1.87 ± 0.093
82 | AUCAAGCAAUAUUACGUUAC | -5.49 ± 0.45 | -2.82 ± 0.27
83 | AUCAAGCAAUAUUACGUUCA | -1.91 ± 0.11 | -0.446 ± 0.13
84 | AUCAAGCAAUAUUACGUUUC | – | -1.52 ± 0.34
85 | AUCCAGCAAUAUUACGAAAA | -1.79 ± 0.12 | -1.02 ± 0.12
86 | AUCCAGCAAUAUUACGAGUU | -1.33 ± 0.063 | -0.782 ± 0.077
87 | AUCCAGCAAUAUUACGAUGU | -0.743 ± 0.066 | 0.613 ± 0.093
88 | AUCCAGCAAUAUUACGCAAC | -2.21 ± 0.13 | -0.741 ± 0.12
89 | AUCCAGCAAUAUUACGCACG | -1.68 ± 0.12 | -0.334 ± 0.13
90 | AUCCAGCAAUAUUACGCCGU | -0.864 ± 0.096 | -0.133 ± 0.12
91 | AUCCAGCAAUAUUACGCCUU | -0.818 ± 0.067 | -0.214 ± 0.082
92 | AUCCAGCAAUAUUACGCGAU | -1.86 ± 0.15 | -2.42 ± 0.25
93 | AUCCAGCAAUAUUACGCUAU | -1.51 ± 0.09 | -1.26 ± 0.1
94 | AUCCAGCAAUAUUACGGCCC | -0.946 ± 0.2 | 0.127 ± 0.21
95 | AUCCAGCAAUAUUACGGCUG | -3.69 ± 0.39 | -2.43 ± 0.27
96 | AUCCAGCAAUAUUACGGGUC | -3.06 ± 0.12 | -1.62 ± 0.13
